For data set [1], the target named is T1, acetylcholine esterase (AChE) (Electrophorus electricus, UniProt O42275).
T1 construct: purchased Sigma C1682
Nature of the data set: AChE-ISFET (AChE-FET) response to substrate and inhibitor in PBS. In kind it is biochemical, electric eel. The note with it: dissolved in PBS, in comparison to ACh.
Method: In this experiment, the ISFET has undergone covalent bonding with acetylcholine-esterase using the aforementioned cyanuryl chloride techniques. As shown in the figure, the response of the ACHE-ISFET to various doses of acetylcholine (graph I). Acetylcholine was manually applied into a solution of 5 ml Phosphate Saline Buffer (PBS) in which the ISFET resided.
Both carbamylcholine and acetylcholine have been dissolved in phosphate buffered saline (PBS).
Acetylcholine esterase (C1682, taken from electric eel), acetylcholine-iodine, acetylcholine-chloride, cyanuric chloride and eserine (physostigmine), ere purchased from Sigma and were used as supplied.
ISFETs were first rinsed with isopropanol and dried under Argon. A is solution of 0.1M cyanuric chloride (in dichloromethane) was prepared and then applied to the Al2O3 gate surface of the ISFET. ISFETs were then dried with Argon and heated at 70° C. for 15 minutes, then rinsed again with dichloromethane and dried under Argon. […]
The resulting hybrid system of Example 3, was immersed in a PBS solution as a background electrolyte for the measurements. […] The current between source and drain electrodes (Ids) was measured, while potential between drain and source electrodes (Vds), and between the gate and source electrodes (Vgs) were kept constant at 0.1V and 0.45V, respectively, recording the electrical activity occurring at the gate surface.

In the next data set the test system is CC(=O)OCC[N+](C)(C)C. Nature of the data set: purified protein, by the assay type. The note with it: other: surface-bound AChE, Lineweaver-Burk plot, DTNB 5×10^−5 M.

The values below come from US20060102935A1, “Transistor-based biosensors having gate electrodes coated with receptor molecules” (priority 2002, published 2006).

One may read the Km as the concentration of substrate that gives half-maximal velocity. What is called Vmax is the rate approached at saturating substrate.

T1 sequence (O42275 24-633): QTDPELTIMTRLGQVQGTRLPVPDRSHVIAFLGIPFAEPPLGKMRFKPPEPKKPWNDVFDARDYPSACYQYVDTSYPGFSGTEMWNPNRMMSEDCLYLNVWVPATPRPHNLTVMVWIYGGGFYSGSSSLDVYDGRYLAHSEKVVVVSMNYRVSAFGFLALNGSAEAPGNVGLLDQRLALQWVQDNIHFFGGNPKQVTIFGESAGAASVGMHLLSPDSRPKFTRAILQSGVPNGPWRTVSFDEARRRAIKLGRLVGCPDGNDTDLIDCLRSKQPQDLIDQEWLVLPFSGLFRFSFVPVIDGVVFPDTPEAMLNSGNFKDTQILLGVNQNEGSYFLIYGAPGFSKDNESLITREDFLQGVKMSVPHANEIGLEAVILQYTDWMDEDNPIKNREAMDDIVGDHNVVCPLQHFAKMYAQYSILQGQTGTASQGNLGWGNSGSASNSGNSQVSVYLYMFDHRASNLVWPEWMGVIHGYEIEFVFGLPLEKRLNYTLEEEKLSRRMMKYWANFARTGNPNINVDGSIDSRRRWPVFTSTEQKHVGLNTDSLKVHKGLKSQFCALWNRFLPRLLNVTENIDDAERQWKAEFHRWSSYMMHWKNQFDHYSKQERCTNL
Method for CC(=O)OCC[N+](C)(C)C: In this test, the enzyme activity is measured by following the increase of yellow color produced from the reaction of thiocholine with the DTNB ion (Sawada, O., Ishida, T., Kihachiro, H., J. Biochem., 129, 2001, 899-907).
The reaction of acetylthiocholine-iodide with DTNB (5,5′-dithio-bis (2-nitrobenzoic acid) marker was conducted by immersing the solid substrate containing the immobilized ACHE, obtained above, in an optical cell compatible with the spectrophotometer. The rate of color production was measure at 410 nm. All of the investigated solutions were freshly prepared: ACh in phosphate buffer of pH=8.0 and the DTNB dissolved in PBS buffer of pH=6.5.
The enzyme activity was probed by two methods: Ex-situ and In-situ experiments. In the Ex-situ experiments the solution of the marker containing ACh is measured before and after the exposure to the immobilized ACHE substrate. The optical cell contains a solution composed of 2 ml of 2.5.10^−3 M ACh and 2 ml of 1.10^−4 M DTNB. The optical spectra were recorded before and after 15 min of the immobilized enzyme solution insertion to this optical cell. In the In-situ experiments, the substrate is immersed in the optical cell containing various concentrations of the DTNB/ACh solution. The hydrolysis product was followed in two ways: (a) by recording the spectra in fixed time interval and (b) by the time course mode at 410 nm. […]

For `C[N+](C)(C)CCOC(N)=O.[Cl-]` [Carbamylcholine], the “response of AChE-ISFET on application to the solution” value in data set [1] was “no response”. For “surface-bound AChE (Electrophorus electricus)”, in the data set on CC(=O)OCC[N+](C)(C)C, the Km came to 310 µM and the Vmax was 1e-07 M/s.
